For orientation: EC50 means the concentration giving half of the maximal effect. A high value points to a need for much substance. As usually defined, the Kd is the equilibrium constant for the complex coming apart. In general, koff refers to a measure of how fast the partners let go of each other. A word on the kon: it is a measure of how fast the partners come together. Broadly, the IC50 is the concentration that inhibits the measured activity by half.

The results in this text go back to US20230331848A1 (BIOSION, published 2023).

Numbering of substitutions follows the chain as printed.

For assay [1], the target named is T1, recombinant mouse PD-1-his protein (Cat#:50124-M08H, Sino Biological Inc) (mouse, UniProt Q02242 25-167).
T1 construct: Bought protein used in Biacore and indirect ELISA; not shown: his tag
T1 sequence (looked up): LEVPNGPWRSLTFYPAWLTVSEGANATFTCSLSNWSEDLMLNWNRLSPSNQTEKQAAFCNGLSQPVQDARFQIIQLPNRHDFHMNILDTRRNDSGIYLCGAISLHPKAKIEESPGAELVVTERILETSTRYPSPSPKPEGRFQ
Kind of assay: indirect ELISA on coated mouse PD-1-his. How it is done: (§1) Briefly, 96-well micro plates were coated with 100 μl 2 μg/ml mouse PD-1-his (Cat#:50124-M08H, Sino Biological Inc) or 2 μg,/ml cynomolgus PD-1-his (Cat#:PD1-05223, Acro biosystems Inc.) in carbonate/bicarbonate buffer (pH 9.6) for 2 hours at 37° C. Plates were washed once with wash buffer (PBST, PBS+0.05% Tween-20) and then blocked with 200 μl blocking buffer (5% w/v non-fatty milk in PBST) for 2 hours at 37° C. […] ELISA plates were washed 4 times and incubated with Peroxidase AffiniPure goat anti-mouse IgG, Fcγ Fragment Specific (1:5000 dilution in PBST buffer, Cat#:115-035-071, Jackson ImmunoResearch Laboratories, Inc., 100 μl/well) or Peroxidase AffiniPure F(ab′)₂ Fragment Goat Anti-Human IgG, Fcγ fragment specific (Cat#:109-036-098, Jackson ImmunoResearch, for the controls) for 40 minutes at 37° C. After a final wash, plates were incubated with 100 μl/well TMB (Cat#:TMB-S-002, innoreagents) at room temperature. The reaction was stopped 3-10 minutes later with 50 μl/well 1M H₂SO₄, and the absorbance was read on a microplate reader using dual wavelength mode with 450 nm for TMB and 630 nm as the reference wavelength. Then the OD (450-630) values were plotted against antibody concentrations. Data was analyzed using GraphPad Prism software and EC₅₀ values were reported.
In general terms: In an ELISA, binding on a coated surface is turned into a signal by an enzyme label.

Assay [2] has as its target T2, cynomolgus PD-1-his protein (Cat#:PD1-05223, Acro biosystems Inc.) (cynomolgus, UniProt B0LAJ3 25-170).
T2 construct: Bought protein used in Biacore and indirect ELISA; also called monkey PD-1; Cyno PD-1
The assay can be described thus: indirect ELISA on coated cynomolgus PD-1-his; unit from the axis 'Con of mAb, nM.'. How it is done:
as §1

For assay [3], the target named is T2, cynomolgus PD-1-his protein …. Kind of assay: indirect ELISA on coated cynomolgus PD-1-his.
Assay [4] deals with T1, recombinant mouse PD-1-his protein …. The assay can be described thus: SPR (Biacore T200), antibody captured, PD-1-his in flow, 1:1 fit. An excerpt:
The purified anti-PD-1 mouse monoclonal antibodies (mAbs) generated in Example 1 were characterized for binding affinities and binding kinetics by Biacore T200 system (GE healthcare, Pittsburgh, Pa., USA).
Briefly, Goat-Anti-Mouse IgG (Cat#: BR100838, GE healthcare, Mouse Antibody Capture Kit) was covalently linked to a CMS chip (carboxy methyl dextran coated chip, Cat#: BR100530, GE healthcare) via primary amines using a standard amine coupling kit (GE healthcare, Pittsburgh, Pa., USA) provided by Biacore. Un-reacted moieties on the biosensor surface were blocked with ethanolamine. A Protein G chip (Cat#:29-1793-15, GE healthcare) was used for the positive controls affinity determination. The anti-PD-1 antibodies of the disclosure and the two positive controls at the concentration of 2 μg/ml were respectively flowed onto the chip at a flow rate of 10 μl/min. Then, serially diluted recombinant human PD-1-his protein (Cat#:10377-H08H, Sino biological Inc.), cynomolgus PD-1-his protein (Cat#:PD1-05223, Acro biosystems Inc.) and recombinant mouse PD-1-his protein (Cat#:50124-M08H, Sino Biological Inc), 2-fold dilution in HBS-EP⁺ buffer (provided by Biacore) starting at 200 nM, were respecitvely flowed onto the chip at a flow rate of 30 μl/min. The antigen-antibody association kinetics was followed for 2 minutes and the dissociation kinetics was followed for 10 minutes. The association and dissociation curves were fit to a 1:1 Langmuir binding model using Biacore evaluation software.
A general note: In SPR one partner is held on a chip, and binding of the other changes the refractive index at the surface.

For assay [5], the target named is T3, in house made human PD-1-Fc protein (human, biotin-labeled (sites not given)).
T3 construct: also called biotin-labeled human PD-1-Fc
The assay can be described thus: competitive ELISA: biotin human PD-1-Fc + antibody on coated human PD-L1-Fc (competitor). How it is done: Briefly, 100 μl human PD-L1-Fc protein (prepared in-house with SEQ ID NO: 28) at 2 μg/mL in carbonate/bicarbonate buffer (pH 9.6) was coated on 96-well micro plates overnight at 4° C., Plates were washed with wash buffer (PBS+0.05% w/v Tween-20, PBST), and blocked with 5% w/v non-fatty milk in PBST for 2 hours at 37° C. […] After incubation at 37° C. for 40 minutes, plates were washed using wash buffer. […] Plates were washed again using wash buffer. Finally, TMB was added and the reaction was stopped using 1M H₂SO₄. The absorbance was read on a microplate reader using dual wavelength mode with 450 nm for TMB and 630 nm as the reference wavelength, then the OD (450-630) values were plotted against antibody concentrations. Data was analyzed using Graphpad Prism software and IC₅₀ values were reported.

Assay [6] concerns the target T3, in house made human PD-1-Fc protein. Kind of assay: blocking FACS: biotin human PD-1-Fc + antibody on GS-C2/PD-L1 cells (competitor: cell-surface human PD-L1).

B1: mouse anti-PD-1 monoclonal antibody E1G5D1H1 (antibody, V domains shown)
VH: EVQLVESGGGLVKPGGSLKLSCAASGFTFSDFYMYWVRQTPEKRLEWVATISNSGTQTYYLDSVKGRFTISRDNAKNNLYLQMSSLKSEDTAMYYCARDYYRYDSWYFDVWGAGTTVTVSS
VL: DIVLTQSPASLAVSQGQRATISCRASESVDFYGTSLMQWFQLKPGQPPKLLIYAASNVESGVPARFSGSGSGTNFSLNIHPVEEDDIAMYFCQQSRKVPWTFGGGTNLEIK
notes: Hybridoma-derived mouse mAb; also called EIG5D1H1; E1G5DIH1
B1: the binding result in assay [1] is reported as “no binding (tested: 66.7 nM)”. The molecule further had an EC50 in assay [2] of 0.142 nM.

B2: mouse anti-PD-1 monoclonal antibody E1A9C8A7 (antibody, V domains shown)
VH: QVQLQQSGAEVVRPGVSVRISCKGSGYTFSDYVMHWMKQSHGESLEWIGVISTYHIPAVYNQKFKGKATMTVDKSSSTVYLELARLTSEDSAIYYCAREVYGDSYYFDVWGAGTTVTVSS
VL: DVLMTQIPLSLPVSLGDQVSISCRSSQSIVHSNGNTYLEWYLQKPGQSPKLLIYKVSNRFSGVPDRFSGSGSGTDFTLKISRVEAEDLGVYYCFQGSHVPYTFGGGTKLEIK
notes: Hybridoma-derived mouse mAb purified on Protein A; also called Mouse E1A9C8A7
Molecule B2 yielded an EC50 in assay [3] of 0.07 nM. In assay [4], the Kd is 150 nM, the koff stood at 0.031 s⁻¹ and the kon worked out at 207000 M⁻¹ s⁻¹. Also, in assay [5], the IC50 was determined as 0.37 nM. Besides, the IC50 in assay [6] amounted to 0.42 nM.

B3: mouse anti-PD-1 monoclonal antibody E2G4E10B7 (antibody, V domains shown)
VH: QVQLQQSGAELVRPGVSVKISCKGSGYTFTDYVMHWVRQSHAKSLEWIGVISTHFGDGVYNQKFKGKATMTVDKSSSTAYMELARLTSEDSAIYYCAREVYGDSWYFDVWGAGTTVTVSS
VL: B2 VL with I7T, V19A, I29L, N33D, V83L
notes: Hybridoma-derived mouse mAb; also called Mouse E2G4E10B7
Regarding B3, in assay [4], the Kd was determined as 29.8 nM, the koff was 0.00553 s⁻¹ and the kon is 186000 M⁻¹ s⁻¹.
